# Data as given in patent publication US10117916B2, “Peptides and combination of peptides for use in immunotherapy against CLL and other cancers” (immatics biotechnologies GmbH, priority 2015, dated 2018).
# Biological target: HLA-A*02:01 (Homo sapiens, UniProt P04439, D140Y/D185E/D98H/E176V/E277Q/G131W/G231S/I119V/I121R/I166T/I218V/L300P/L318F/N151K/N90K/P208A/P217A/Q86G/Q94H/R138H/R169H/T345S)
# Assay: MHC binding assay: UV-ligand exchange with β2m ELISA (peptide exchange yield)
# Settings: MHC class I binding score; binding to HLA-A*02:01 ranged by peptide exchange yield (UV-ligand exchange, β2m ELISA)
# Excerpt: Candidate peptides for T cell based therapies according to the present invention were further tested for their MHC binding capacity (affinity). The individual peptide-MHC complexes were produced by UV-ligand exchange, where a UV-sensitive peptide is cleaved upon UV-irradiation, and exchanged with the peptide of interest as analyzed. Only peptide candidates that can effectively bind and stabilize the peptide-receptive MHC molecules prevent dissociation of the MHC complexes. To determine the yield of the exchange reaction, an ELISA was performed based on the detection of the light chain (β2m) of stabilized MHC complexes. The assay was performed as generally described in Rodenko et al. (Rodenko et al., 2006).
# 96 well MAXISorp plates (NUNC) were coated over night with 2 ug/ml streptavidin in PBS at room temperature, washed 4× and blocked for 1 h at 37° C. in 2% BSA containing blocking buffer. Refolded HLA-A*02:01/MLA-001 monomers served as standards, covering the range of 15-500 ng/ml. Peptide-MHC monomers of the UV-exchange reaction were diluted 100 fold in blocking buffer. Samples were incubated for 1 h at 37° C., washed four times, incubated with 2 ug/ml HRP conjugated anti-β2m for 1 h at 37° C., washed again and detected with TMB solution that is stopped with […]. Absorption was measured at 450 nm. Candidate peptides that show a high exchange yield (preferably higher than 50%, most preferred higher than 75%) are generally preferred for a generation and production of antibodies or fragments thereof, and/or T cell receptors or fragments thereof, as they show sufficient avidity to the MHC molecules and prevent dissociation of the MHC complexes.
row,Substance,Peptide Exchange
1,3 (VIAELPPKV; listed as Homo sapiens) [compound 3],″++″ (≥20% = ++)
2,4 (VIAELPPKVSV; listed as Homo sapiens) [compound 4],″+++″ (≥50 = +++)
3,6 (ALDTLEDDMTI; listed as Homo sapiens) [compound 6],″+++″ (≥50 = +++)
4,7 (ALLERTGYTL; listed as Homo sapiens) [compound 7],″+++″ (≥50 = +++)
5,8 (ALAASALPALV; listed as Homo sapiens) [compound 8],″+++″ (≥50 = +++)
6,9 (ALCDTLITV; listed as Homo sapiens) [compound 9],″+++″ (≥50 = +++)
7,10 (FVYGESVEL; listed as Homo sapiens) [compound 10],″+++″ (≥50 = +++)
8,11 (ALFTFSPLTV; listed as Homo sapiens) [compound 11],″+++″ (≥50 = +++)
9,12 (ALGEDEITL; listed as Homo sapiens) [compound 12],″+++″ (≥50 = +++)
10,13 (VVDGMPPGV; listed as Homo sapiens) [compound 13],″+++″ (≥50 = +++)
11,14 (ALLRLLPGL; listed as Homo sapiens) [compound 14],″+++″ (≥50 = +++)
12,15 (ALPEVSVEA; listed as Homo sapiens) [compound 15],″+++″ (≥50 = +++)
13,16 (ALPGGAAVAAV; listed as Homo sapiens) [compound 16],″++++″ (≥75% = ++++)
14,18 (LLGEFSIKM; listed as Homo sapiens) [compound 18],″+++″ (≥50 = +++)
15,19 (QVMEKLAAV; listed as Homo sapiens) [compound 19],″+++″ (≥50 = +++)
16,20 (ALVDPGPDFVV; listed as Homo sapiens) [compound 20],″+++″ (≥50 = +++)
17,21 (ALWAGLLTL; listed as Homo sapiens) [compound 21],″+++″ (≥50 = +++)
18,22 (ALWDPVIEL; listed as Homo sapiens) [compound 22],″+++″ (≥50 = +++)
19,23 (ALYLTEVFL; listed as Homo sapiens) [compound 23],″++++″ (≥75% = ++++)
20,24 (AMAGDVVYA; listed as Homo sapiens) [compound 24],″+++″ (≥50 = +++)
21,25 (ATYSGLESQSV; listed as Homo sapiens) [compound 25],″++″ (≥20% = ++)
22,27 (AVLGLVWLL; listed as Homo sapiens) [compound 27],″+++″ (≥50 = +++)
23,28 (AVLHLLLSV; listed as Homo sapiens) [compound 28],″++″ (≥20% = ++)
24,29 (AVLQAVTAV; listed as Homo sapiens) [compound 29],″+++″ (≥50 = +++)
25,30 (ELLEGSEIYL; listed as Homo sapiens) [compound 30],″+++″ (≥50 = +++)
26,31 (ELMHGVAGV; listed as Homo sapiens) [compound 31],″+++″ (≥50 = +++)
27,34 (YLPYIFPNI; listed as Homo sapiens) [compound 34],″+++″ (≥50 = +++)

row,Substance,Peptide Exchange
1,35 (FILPSSLYL; listed as Homo sapiens) [compound 35],″+++″ (≥50 = +++)
2,36 (FILTHVDQL; listed as Homo sapiens) [compound 36],″++++″ (≥75% = ++++)
3,37 (FIMEGGAMVL; listed as Homo sapiens) [compound 37],″++++″ (≥75% = ++++)
4,38 (FIMEGGAMV; listed as Homo sapiens) [compound 38],″+++″ (≥50 = +++)
5,39 (FLDALLTDV; listed as Homo sapiens) [compound 39],″+++″ (≥50 = +++)
6,40 (FLDEDDMSL; listed as Homo sapiens) [compound 40],″++″ (≥20% = ++)
7,41 (FLDPSLDPLL; listed as Homo sapiens) [compound 41],″+++″ (≥50 = +++)
8,42 (FLEEGGVVTV; listed as Homo sapiens) [compound 42],″+++″ (≥50 = +++)
9,43 (FLLGPEALSFA; listed as Homo sapiens) [compound 43],″++++″ (≥75% = ++++)
10,44 (FLLSINDFL; listed as Homo sapiens) [compound 44],″+++″ (≥50 = +++)
11,45 (FLPELPADLEA; listed as Homo sapiens) [compound 45],″+++″ (≥50 = +++)
12,46 (YIIDSAQAV; listed as Homo sapiens) [compound 46],″+++″ (≥50 = +++)
13,47 (FLSDQPEPYL; listed as Homo sapiens) [compound 47],″++″ (≥20% = ++)
14,48 (FLSPQQPPLL; listed as Homo sapiens) [compound 48],″+++″ (≥50 = +++)
15,50 (FLFEPVVKAFL; listed as Homo sapiens) [compound 50],″+++″ (≥50 = +++)
16,51 (FLVEAPHDWDL; listed as Homo sapiens) [compound 51],″++++″ (≥75% = ++++)
17,52 (FLVETGFLHV; listed as Homo sapiens) [compound 52],″++++″ (≥75% = ++++)
18,53 (FLWQHVELVL; listed as Homo sapiens) [compound 53],″+++″ (≥50 = +++)
19,55 (FMEPTLLML; listed as Homo sapiens) [compound 55],″+++″ (≥50 = +++)
20,58 (YIQQGIFSV; listed as Homo sapiens) [compound 58],″+++″ (≥50 = +++)
21,59 (FVFGDENGTVSL; listed as Homo sapiens) [compound 59],″+++″ (≥50 = +++)
22,60 (FVLDHEDGLNL; listed as Homo sapiens) [compound 60],″+++″ (≥50 = +++)
23,61 (FVYFIVREV; listed as Homo sapiens) [compound 61],″+++″ (≥50 = +++)
24,62 (GIIDGSPRL; listed as Homo sapiens) [compound 62],″+++″ (≥50 = +++)
25,63 (SLAHVAGCEL; listed as Homo sapiens) [compound 63],″+++″ (≥50 = +++)
26,64 (KLLESVASA; listed as Homo sapiens) [compound 64],″+++″ (≥50 = +++)
27,65 (GLDDMKANL; listed as Homo sapiens) [compound 65],″++″ (≥20% = ++)
